Assay results as given in patent publication US20230241168A1 (ALPINE IMMUNE SCIENCES, published 2023).
Substitutions are numbered along the chain they refer to. Numbers in names are those of the source.

T1: recombinant human APRIL (human, UniProt O75888 105-250, limits assumed)
T1 sequence (looked up): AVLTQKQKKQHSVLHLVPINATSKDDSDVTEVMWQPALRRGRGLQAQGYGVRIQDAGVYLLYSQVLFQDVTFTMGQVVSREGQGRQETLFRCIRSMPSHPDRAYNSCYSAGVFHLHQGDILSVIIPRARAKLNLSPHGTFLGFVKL

T2: human CD80 (human, UniProt P33681 35-288)
T2 sequence (looked up): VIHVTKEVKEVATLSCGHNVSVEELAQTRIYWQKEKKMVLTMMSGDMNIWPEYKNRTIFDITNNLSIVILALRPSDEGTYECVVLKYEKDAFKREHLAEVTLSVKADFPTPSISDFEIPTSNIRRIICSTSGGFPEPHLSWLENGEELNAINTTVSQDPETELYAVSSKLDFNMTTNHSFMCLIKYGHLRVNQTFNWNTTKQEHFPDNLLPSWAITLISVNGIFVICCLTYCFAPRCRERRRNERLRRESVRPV

T3: human CD86 (human, UniProt P42081 24-329)
T3 sequence (looked up): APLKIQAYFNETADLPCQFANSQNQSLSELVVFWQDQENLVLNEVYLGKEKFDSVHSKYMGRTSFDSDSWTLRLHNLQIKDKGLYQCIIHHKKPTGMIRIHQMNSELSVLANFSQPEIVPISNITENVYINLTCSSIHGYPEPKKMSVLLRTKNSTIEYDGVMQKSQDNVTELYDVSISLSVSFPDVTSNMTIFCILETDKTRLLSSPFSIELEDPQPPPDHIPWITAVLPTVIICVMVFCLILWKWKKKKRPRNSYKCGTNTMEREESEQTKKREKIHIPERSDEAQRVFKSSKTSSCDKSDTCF

B1: TACI 542 GSG4S Fc (G4S)4 (CTLA-4 186) (Fc fusion)
chain: SLSCRKEEGKFYDHLLQDCISCASICGQHPKQCAYFCENKLRSGSGGGGSEPKSSDKTHTCPPCPAPEAEGAPSVFLFPPKPKDTLMISRTPEVTCVVVDVSHEDPEVKFNWYVDGVEVHNAKTKPREEQYNSTYRVVSVLTVLHQDWLNGKEYKCKVSNKALPAPIEKTISKAKGQPREPQVYTLPPSRDELTKNQVSLTCLVKGFYPSDIAVEWESNGQPENNYKTTPPVLDSDGSFFLYSKLTVDKSRWQQGNVFSCSVMHEALHNHYTQKSLSLSPGGGGGSGGGGSGGGGSGGGGSKAMHVAQPAVVLASSRGIASFVCEYASPWKATEVRVTVLRQADSQVTEVCAATYMMGNELTFLDDSICTGTSSGNQVNLTIQGLRAMDTGLYICKVEQMYPPPYLLGIGNGTQIYVIDPEPCPDSD
B2: CTLA-4 92 GSG4S Fc (G4S)5 BCMA 357 (Fc fusion)
chain: KAMHVAQPAVVLASSRGIASFVCEYASPWKATEVRVTVLRQADSQVTEVCAATYMMGSELTFPDDSICTGTSSGNQVNLTIRGLRAMDTGLYICKVEQMYPPPYLLGIGNGTQIYVIDPEPCPDSDGSGGGGSEPKSSDKTHTCPPCPAPEAEGAPSVFLFPPKPKDTLMISRTPEVTCVVVDVSHEDPEVKFNWYVDGVEVHNAKTKPREEQYNSTYRVVSVLTVLHQDWLNGKEYKCKVSNKALPAPIEKTISKAKGQPREPQVYTLPPSRDELTKNQVSLTCLVKGFYPSDIAVEWESNGQPENNYKTTPPVLDSDGSFFLYSKLTVDKSRWQQGNVFSCSVMHEALHNHYTQKSLSLSPGGGGGSGGGGSGGGGSGGGGSGGGGSLQMAGQCSQNEYFDSLLYACIPCQLRCSSNTPPLTCQRYCNASVTNSVKGTNA
B3: BCMA 357 (G4S)3 CTLA-4 92 GSG4S Fc (Fc fusion)
chain: LQMAGQCSQNEYFDSLLYACIPCQLRCSSNTPPLTCQRYCNASVTNSVKGTNAGGGGSGGGGSGGGGSGGGGSKAMHVAQPAVVLASSRGIASFVCEYASPWKATEVRVTVLRQADSQVTEVCAATYMMGSELTFPDDSICTGTSSGNQVNLTIRGLRAMDTGLYICKVEQMYPPPYLLGIGNGTQIYVIDPEPCPDSDGSGGGGSEPKSSDKTHTCPPCPAPEAEGAPSVFLFPPKPKDTLMISRTPEVTCVVVDVSHEDPEVKFNWYVDGVEVHNAKTKPREEQYNSTYRVVSVLTVLHQDWLNGKEYKCKVSNKALPAPIEKTISKAKGQPREPQVYTLPPSRDELTKNQVSLTCLVKGFYPSDIAVEWESNGQPENNYKTTPPVLDSDGSFFLYSKLTVDKSRWQQGNVFSCSVMHEALHNHYTQKSLSLSPG
B4: CTLA-4 92 GSG4S Fc (G4S)2 BCMA 357 (Fc fusion)
chain: KAMHVAQPAVVLASSRGIASFVCEYASPWKATEVRVTVLRQADSQVTEVCAATYMMGSELTFPDDSICTGTSSGNQVNLTIRGLRAMDTGLYICKVEQMYPPPYLLGIGNGTQIYVIDPEPCPDSDGSGGGGSEPKSSDKTHTCPPCPAPEAEGAPSVFLFPPKPKDTLMISRTPEVTCVVVDVSHEDPEVKFNWYVDGVEVHNAKTKPREEQYNSTYRVVSVLTVLHQDWLNGKEYKCKVSNKALPAPIEKTISKAKGQPREPQVYTLPPSRDELTKNQVSLTCLVKGFYPSDIAVEWESNGQPENNYKTTPPVLDSDGSFFLYSKLTVDKSRWQQGNVFSCSVMHEALHNHYTQKSLSLSPGGGGGSGGGGSLQMAGQCSQNEYFDSLLYACIPCQLRCSSNTPPLTCQRYCNASVTNSVKGTNA
B5: CTLA-4 186GSG4S-Fc-(G4S)4-BCMA 381 (Fc fusion)
chain: KAMHVAQPAVVLASSRGIASFVCEYASPWKATEVRVTVLRQADSQVTEVCAATYMMGNELTFLDDSICTGTSSGNQVNLTIQGLRAMDTGLYICKVEQMYPPPYLLGIGNGTQIYVIDPEPCPDSDGSGGGGSEPKSSDKTHTCPPCPAPEAEGAPSVFLFPPKPKDTLMISRTPEVTCVVVDVSHEDPEVKFNWYVDGVEVHNAKTKPREEQYNSTYRVVSVLTVLHQDWLNGKEYKCKVSNKALPAPIEKTISKAKGQPREPQVYTLPPSRDELTKNQVSLTCLVKGFYPSDIAVEWESNGQPENNYKTTPPVLDSDGSFFLYSKLTVDKSRWQQGNVFSCSVMHEALHNHYTQKSLSLSPGGGGGSGGGGSGGGGSGGGGSLQMAGQCSQNEYFDALLYACIPCQLRCSSNTPPLTCQQYCNASVTNSVKGTNA
B6: CTLA-4 186GSG4S-Fc-(G4S)4-BCMA 411 (Fc fusion)
chain: B5 chain with A399S, Y402R, Q422R
B7: CTLA-4 186GSG4S-Fc-(G4S)4-BCMA 405 (Fc fusion)
chain: B5 chain with A399S, Y402K, Q422R
B8: CTLA-4 92 GSG4S Fc (G4S)3 BCMA 357 (Fc fusion)
chain: KAMHVAQPAVVLASSRGIASFVCEYASPWKATEVRVTVLRQADSQVTEVCAATYMMGSELTFPDDSICTGTSSGNQVNLTIRGLRAMDTGLYICKVEQMYPPPYLLGIGNGTQIYVIDPEPCPDSDGSGGGGSEPKSSDKTHTCPPCPAPEAEGAPSVFLFPPKPKDTLMISRTPEVTCVVVDVSHEDPEVKFNWYVDGVEVHNAKTKPREEQYNSTYRVVSVLTVLHQDWLNGKEYKCKVSNKALPAPIEKTISKAKGQPREPQVYTLPPSRDELTKNQVSLTCLVKGFYPSDIAVEWESNGQPENNYKTTPPVLDSDGSFFLYSKLTVDKSRWQQGNVFSCSVMHEALHNHYTQKSLSLSPGGGGGSGGGGSGGGGSLQMAGQCSQNEYFDSLLYACIPCQLRCSSNTPPLTCQRYCNASVTNSVKGTNA
B9: CTLA-4 92 (G4S)4 BCMA 357 GSG4S Fc (Fc fusion)
chain: KAMHVAQPAVVLASSRGIASFVCEYASPWKATEVRVTVLRQADSQVTEVCAATYMMGSELTFPDDSICTGTSSGNQVNLTIRGLRAMDTGLYICKVEQMYPPPYLLGIGNGTQIYVIDPEPCPDSDGGGGSGGGGSGGGGSGGGGSLQMAGQCSQNEYFDSLLYACIPCQLRCSSNTPPLTCQRYCNASVTNSVKGTNAGSGGGGSEPKSSDKTHTCPPCPAPEAEGAPSVFLFPPKPKDTLMISRTPEVTCVVVDVSHEDPEVKFNWYVDGVEVHNAKTKPREEQYNSTYRVVSVLTVLHQDWLNGKEYKCKVSNKALPAPIEKTISKAKGQPREPQVYTLPPSRDELTKNQVSLTCLVKGFYPSDIAVEWESNGQPENNYKTTPPVLDSDGSFFLYSKLTVDKSRWQQGNVFSCSVMHEALHNHYTQKSLSLSPG
B10: BCMA 381 GSG4S-Fc-(G4S)4-CTLA-4 186 (Fc fusion)
chain: LQMAGQCSQNEYFDALLYACIPCQLRCSSNTPPLTCQQYCNASVTNSVKGTNAGSGGGGSEPKSSDKTHTCPPCPAPEAEGAPSVFLFPPKPKDTLMISRTPEVTCVVVDVSHEDPEVKFNWYVDGVEVHNAKTKPREEQYNSTYRVVSVLTVLHQDWLNGKEYKCKVSNKALPAPIEKTISKAKGQPREPQVYTLPPSRDELTKNQVSLTCLVKGFYPSDIAVEWESNGQPENNYKTTPPVLDSDGSFFLYSKLTVDKSRWQQGNVFSCSVMHEALHNHYTQKSLSLSPGGGGGSGGGGSGGGGSGGGGSKAMHVAQPAVVLASSRGIASFVCEYASPWKATEVRVTVLRQADSQVTEVCAATYMMGNELTFLDDSICTGTSSGNQVNLTIQGLRAMDTGLYICKVEQMYPPPYLLGIGNGTQIYVIDPEPCPDSD
B11: BCMA 357 GSG4S Fc (G4S)3 CTLA-4 92 (Fc fusion)
chain: B10 chain with A15S, Q38R, N369S, L374P, Q393R

What follows are binders tested against T1, recombinant human APRIL (assay: cell-based or functional assay).

Row | IC50 (nM) APRIL [nM] | IC50 APRIL (Δ Parental vTD) [ratio] | Binder
1 | 1.2 |  | B1
2 | 0.687 | 0.7 | B2
3 | 0.689 | 0.7 | B3
4 | 0.683 | 1 | B4
5 | 1.27 |  | B5
6 | 2.37 |  | B6
7 | 18.4 |  | B7
8 | 0.55 | 0.5 | B8
9 | 0.63 | 0.6 | B9
10 | 0.876 |  | B10
11 | 0.582 | 0.6 | B11

Each binder was assayed against recombinant human BAFF (human, UniProt Q9Y275 134-285) (assay: cell-based or functional assay).

Row | IC50 (nM) BAFF [nM] | IC50 BAFF (Δ Parental vTD) [ratio] | Binder
12 | 0.179 |  | B1
13 | 0.765 | 0.8 | B2
14 | 0.396 | 0.4 | B3
15 | 6.27 | 1.2 | B4
16 | 0.282 |  | B5
17 | 0.133 |  | B6
18 | 0.16 |  | B7
19 | 0.548 | 0.6 | B8
20 | 3.75 | 3.8 | B9
21 | 0.0617 |  | B10
22 | 0.415 | 0.4 | B11

These binders were tested against T2, human CD80 (assay: cell-based or functional assay).

Row | CD80 IC50 [nM] | CD80 IC50 (Δ Parental CTLA-4) [ratio] | Binder
23 | 22.7 |  | B4
24 | 26.1 | 0.8 | B5
25 | 32.7 | 1 | B6
26 | 70.1 | 2.1 | B7

What follows are binders tested against T3, human CD86 (assay: cell-based or functional assay).

Row | CD86 IC50 [nM] | CD86 IC50 (Δ Parental CTLA-4) [ratio] | Binder
27 | 16.1 |  | B4
28 | 11.9 | 1.5 | B5
29 | 9 | 1.1 | B6
30 | 10.8 | 1.3 | B7
